Results taken from patent publication US12709641B2, “Tau binding compounds” (VOYAGER THERAPEUTICS, INC., dated 2026).
Residue numbers refer to the chain shown, from its start.

B1: V0006 (antibody, V domains shown)
VH: QVQLKESGPGLVAPSQSLSITCTVSGFSLTSYAISWVRQPPGKSLEWLGVIWTGGGSKYNSALKSRLSISKDNSKSQVFLKMNSLQTDDTARYYCVRNYDYYRYEGFDYWGQGTLVTVSA
VL: DIKMTQSPSSLSASLGEGVSLTCRASQDIGSSLHWLQQKPDGTIKRLIYGTSTLDSDVPKRFSGSRSGSDYSLTISSLESEDFVDYFCLQYATSPPTFGGGTKLEIK
B2: V1005 (antibody, V domains shown)
VH: QVTLKESGPGKLQPSQTLSLTCSFSGFSLSTSGMGVSWIRQPSGKGLEWLAHIYWDDDKRYNPSLKSRLTISKDTSRNQVFLKITSVDTADTATYYCARGWLRRKDYSAMDYWGQGTSVTVSS
VL: NIVMTQSPKSMSMSVGERVTLSCKASEHVGPYVSWYQHKAEQSPKLLIYGASNRYTGVPDRFTGSGSATDFTLIISSVQAEDLADYHCGQTYSYPLTFGAGTKLELK
B3: V0001 (antibody, V domains shown)
VH: EVQLVESGGGLVQPKGSLKLSCAASGFTFNTYAMYWVRQAPGKGLEWVARIRSKSSNYATYYADSVKDRFTISRDDSQSKLYLQMNNLKTEDTAMYYCVREGLWYYFDYWGQGTTLTVSS
VL: DIQMTQITSSLSASLGDRVTISCRASQDISNYLNWYQQKPDGTVKLLIYSTSRLHSGVPSRFSGSGSGTDYSLTISNLEPEDIATYYCQQYSKLLPTFGSGTKLEIK
B4: V00010 (antibody, V domains shown)
VH: QIQLVQSGPELKKPGETVKISCKASGYSFTTYGMSWVKQAPGKGLKWMGWINTYSGVPTYADDFKERFAFSLETSASTAYLQINNLKNEDTSTYFCARRGGLYDGYYGYWGQGTTLTVSS
VL: DIVMSQSPSSLAVSAGEKVTMSCKSSQSLLSSRTRKNYLAWYQQKPGQSPKLLIYWASTRESGVPDRFTGSGSGTDFTLTITTVQAEDLAVYYCKQSYNLWTFGGGTKLEIK
B5: V0025 (antibody, V domains shown)
VH: QVQLQQPGTELVKPGASVKLSCKASGFTFTRFWMHWVKQRPGQGLEWIGNINPNNGETNYNEKFKIKAALTVDKSSTTAYMQLSSLTSEDSAVYSCARGTGTGAMDYWGQGTSVTVSS
VL: DVVMTQTPLSLPVSLGDQASISCRSSQSLVHSTGNTYLYWYLQKPGQSPKLLIYRVSTRFSGVPDRFSGSGSGTDFTLKINRVEAEDLGVYFCFQGTHVPRTFGGGTKLEIK
B6: V0049 (antibody, V domains shown)
VH: QVTLKESGPGILQSSQTLSLTCSFSGFSLSTSGMGVSWIRQPSGKGLEWLAHIYWDDDKRYNPSLKSRLKISKDTSRNQVFLKITSVDTADTATYYCARRGYYSNGNYFDYWGQGTTLTVSS
VL: QIVLTQSPTTMAASPGEKITITCSASSSISSTYLHWYQQKPGFSPKLLIYRTSNLASGVPARFSGSGSGTSYSLTIGTMEAEDVATYYCQQGSSIPRYTFGGGTKLEIK
B7: V0003 (antibody, V domains shown)
VH: QVQLQQPGTELVKPGASVKLSCKASGYTFTKNWLHWVKQRPGQGLEWIGYINPSNGATNYNERFKSKASLTVDKSSTTAYMQLSSLTSEDSAVYYCARSGGWLLPYYAMDYWGHGTSVTVSS
VL: EIVLIQSPALMAASPGEKVTITCSVSSSISSSNLHWYQQQSGTSPKPWILATSNLASGVPVRFSGSGSGTSYSLTISSMEAEDAATYYCQQWSSYPFTFGTGTKLEIK
B8: V1003 (antibody, V domains shown)
VH: EVKLVESGGGLVKPGGSLKLSCAASGFTFSSYAMSWVRQIPEKRLEWVAAINSNGGSTYYPDTVKDRFTISRDNAKNTLYLQMSSLRSEDTALYYCVRQGWDAWFAYWGQGTLVAVSA
VL: DIKMTQSPSSMYASLGERVTITCKASQDINSYLSWFQQKPGKSPKTLIYRANRLVDGVPSRFSGSGSGQDYSLTISSLEYEDMGIYYCLQYDEFPLTFGAGTKLELK
B9: V1004 (antibody, V domains shown)
VH: B8 VH with K3Q, I40T, T58I, S84I, V97A, W101G, D102S, A103S, A106V, A115T
VL: B8 VL with T5I, S77R, M83V, I85L, L89Q
B10: V1001 (antibody, V domains shown)
VH: EVQLVESGGGLVKPGGSLKLSCAASGFTFSSYAMSWVRQTPEKRLEWVAAINSNGGRTYYPDTVKDRFTISRDNAKNTLYLQMSSLRSEDTALYYCARQGHSNYYEAWFAYWGQGTLVTVSA
VL: B8 VL with V19L, T20S, S34N, Y80D, K107R
B11: V0008 (antibody, V domains shown)
VH: QVQLKESGPGLVAPSQSLSITCTVSGFSLTTYAISWVRQPPGKGLEWLGVIWTGGGTDFNSALKSRLSISKDNSKSQVFLKMISLQTNDTARYYCARKGGSYYSTTYVGLYAMDYWGQGTSVTVSS
VL: DIQMTQTTSSLSASLGDRVTISCRASQDISNYLNWYQQKPAGTVKLLIYYTSRLHSGVPSRFSGSGSGTDYSLTISNLEQEDVATYFCQQGNTLPWTFGGGSKLEIK
B12: V0043 (antibody, V domains shown)
VH: DVQLQESGPGLVKPSQSLSLTCSVSGYSITTNYFWNWIRLFPGNKLEWMGYISYDGSNVYNPSLKNRISITRDTSKNQFFLKLNSLTTEDTATYYCARGPPSAYWGQGTLVTVSA
VL: SIVMTQSPKFLPVSAGDRVTMTCKASQSVGNNVAWYQQKPGQSPKLLIYYASNRYTGVPDRFTGSGSGTDFTLTISSVQVEDLVVYFCQQHYSSPLTFGAGTKLELK
B13: V0044 (antibody, V domains shown)
VH: B12 VH with S25T, F34Y, L40Q, S53T, V59N, L86V, S102T
VL: B12 VL with S1N, S7T, V13I, S14A, T20I, A34G, Q38L, Y50F, L73F, V84A
B14: V0042 (antibody, V domains shown)
VH: DVQLQESGPGLVKPSQSLSLTCSVTGYSITTNYYWNWIRQFPGNKLEWMGYITYDGIKTYNPSLNNRISITRDTSKNQFFLKLNSVTTEDTATYYCARGPGLDYWGQGTTLTVSS
VL: B12 VL with S7T, G64A, L73F, V84A, L96Y, A100S, K103N, L106I
B15: V0045 (antibody, V domains shown)
VH: DVQLQESGPGLVKPSQSLSLTCSVTGYSITTNYYWNWIRQFPGNKLEWMGYISYDGSSNYNPSLKNRISITRDTSKNQFFLNLNSVTTEDTATYYCARDLLGYWGQGTTLTVSS
VL: B12 VL with S7T, V29L, L73F, V84A, L96R, A100G, L106I, K107R
B16: V2001 (antibody, V domains shown)
VH: DVQLVESGGGLVQPGGSRKLSCAASGFIFSSFGMHWVRQAPEKGLEWVAYISSGSATIYYADTVKGRFTISRDNPKNTLFLQMTSLRSEDTAMYYCARKRGSGNYVSAMDFWGQGTSVTVSS
VL: DVLMTQTPLSLPVSLGDQASISCRSGQSIVHSNGNTYLEWYLQKPGQSPKLLIYKVSNRFSGVPDRFSGSGSGTDFTLKISRVEAEDLGVYYCFQGSHVPWTFGGGTKLEIK
B17: V00011 (antibody, V domains shown)
VH: EVQLVESGGGLVKPGGSLKLSCAASGFTFSDYGMYWVRQAPEKGLEWVAYISSGSTTIYYADTVKGRFTISRDNAKNTLFLQMTSLRSEDTAMYYCAGHWYFDVWGTGTTVTVSS
VL: B16 VL with L9V, G26S, Y37H, G96D
B18: V0047 (antibody, V domains shown)
VH: EVQLVESGGGLVKPGGSLKLSCAASGFTFSDYGMHWVRQAPEKGLEWVAYISSGSRTIYYADTVKGRFTISRDNAKNTLFLQMTSLRSEDTAMYYCARSPYAMDYWGQGTSVTVSS
VL: B16 VL with L3V, G26S, I29L, E39H, Y92F, F94S, G96S, S97T
B19: V0036 (antibody, V domains shown)
VH: QVTLKESGPGILQPSQTLNLTCSFSGFSLSTSGMGVSWIRQPSGKGLEWLAHIYWDDDKRYNPSLKSRLTISKDTSRNQVFLKITSVDTADTATYYCVRRSRRGNYDYWGQGTTLTVSS
VL: not shown
B20: V0007 (antibody, V domains shown)
VH: EVQLVESGGDLVKPGGSLKLSCAASGFTFSSYGLSWVRQTPDKRLEWVATISSGGDYTYYPDSVKGRFTISRDNAKNILYLHMSSLKSEDTAMYYCAREDGYYVGTMDYWGQGTSVTVSS
VL: DIQMTQSPSSLSASLGERVSLTCRASQDIGSSLNWLQQEPDGTFKRLIYATSSLDSGVPKRFSGSRSGSDYSLTISSLESEDFVDYYCLQYDSLPLTFGAGTKLELK
B21: V0055 (antibody, V domains shown)
VH: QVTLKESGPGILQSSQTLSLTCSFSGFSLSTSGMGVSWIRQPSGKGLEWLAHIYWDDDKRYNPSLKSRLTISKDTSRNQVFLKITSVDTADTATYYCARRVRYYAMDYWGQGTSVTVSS
VL: DIVMTQSPSSLSVSAGEKVTMSCKSSQSLLNSGNQKNYLAWYQQKPGQPPKLLIYGASTRESGVPDRFTGSGSGTDFTLTISSVQAEDLAVYYCQNDHSHPYTFGGGTKLEIK

The binders below were run against enriched paired helical filament tau protein (ePHF) (human, phosphorylated residues of pathological tau, sites not stated) (assay: direct ELISA).
Procedure: Variable domain nucleic acid sequences from antibodies obtained from immunizations described above were used to prepare recombinant mouse IgG antibodies. These candidate antibodies were analyzed for binding to ePHF and specificity for ePHF over wild type tau by direct ELISA.
For direct ePHF and wildtype tau ELISA, plates were first coated with ePHF or wild type tau. Antigen solutions were prepared in PBS and 50 μL were pipetted into each well. Plates were covered and incubated for one hour at 37° C. or overnight at 4° C. Plates were then washed and blocked by addition of 150 μl of blocking buffer to each well and incubated one hour at room temperature. Plates were then washed before addition of serially diluted candidate antibody samples prepared in blocking buffer. Detection of candidate antibody binding was carried out by washing plates and adding a solution of enzyme-labeled secondary antibody in blocking buffer to each well. Secondary antibody binding was detected by addition of substrate and spectrophotometric analysis of resulting reaction product.
B1 was tested, and the EC50 was 0.861 nM.
Work on B2 yielded an EC50 of 0.48 nM.
Work on B3 yielded an EC50 of 0.126 nM.
For B4, the EC50 was 0.134 nM.
B5 was tested, and the EC50 was 0.098 nM.
B6 showed an EC50 of 0.053 nM.
B7 gave an EC50 of 2.83 nM.
With B8 the EC50 was 0.234 nM.
Binder B9 has an EC50 of 0.069 nM.
With B10 the EC50 was 0.401 nM.
Binder B11 has an EC50 of 1.54 nM.
B12 showed an EC50 of 0.581 nM.
In the case of B13, the EC50 is reported as 0.209 nM.
With B14 the EC50 was 0.869 nM.
B15 gave an EC50 of 0.618 nM.
Binder B16 has an EC50 of 0.237 nM.
Work on B17 yielded an EC50 of 0.171 nM.
B18 showed an EC50 of 0.118 nM.
In the case of B19, the EC50 is reported as 6.43 nM.
In the case of B20, the EC50 is reported as 0.74 nM.

Each binder was assayed against iPHF (Homo sapiens (Human), UniProt P10636-8) (assay: Octet, antibody on biosensor tips).
Procedure: Anti-human tau antibodies were assessed for affinity for iPHF by Octet (ForteBio, Menlo Park, CA) analysis. Recombinant mouse IgG antibodies were prepared with clone-specific variable domain pairs selected from those presented in Table 3 and mouse IgG1 constant domains. Candidate antibodies were immobilized on biosensor tips (ForteBio) in kinetic buffer (ForteBio). Biosensor tips were then washed before introduction of a solution of iPHF in kinetic buffer for analysis of association and dissociation with candidate antibodies. Affinity measurements (K_D) were obtained using Data Analysis HT version 11.1 and corrected for background and high-frequency noise.
With B21 the Kd was 1.3 nM.
